According to patent US20190091227A1, “METHODS FOR TREATING ER+, HER2-, HRG+ BREAST CANCER USING COMBINATION THERAPIES COMPRISING AN ANTI-ERBB3 ANTIBODY” (Merrimack Pharmaceuticals, Inc., priority 2016, published 2019):
Entries after “also recorded” stand apart in the source; their conditions may differ. Like-named read-outs stand apart in the source and are kept apart here.

How the values were obtained:
[1] = tested on: MCF7 cells; experiment: Cell cycle / S-phase by EdU incorporation and flow cytometry in MCF7 cells; assay type: cell-based, human
Procedure: FIG. 13 is a representative FACS plot of the cell cycle distribution. The gate settings and percentage for cells in G0/G1, S and G2/M phases are indicated. DNA synthesis (S-phase) was determined by quantifying cells positive for both EdU incorporation and DNA content.

[2] = tested on: RB; experiment: RB phosphorylation (S807/811, S780) by Western blotting in MCF7 cells; assay type: cell-based, human; conditions: for RB phosphorylation / activation: MCF7, 20-24 hours, HRG 10 nM, fulvestrant 50 nM, palbociclib, abemaciclib 40 nM
Procedure: MCF7 cells were cultured as described above. […] Cellular lysates were prepared by lysis in MPER lysis buffer with the addition of protease and phosphatase inhibitors for 30 mins on ice. Cellular debris were removed by centrifugation at 10,000 rpm. Proteins were analyzed by Western blotting according to standard protocols. Protein loading was estimated by blotting with a β-actin antibody (β-Actin (13E5) Rabbit mAb #4970 Cell Signal) and RB activation was measured by detection of phosphorylation of RB (pRB) at pRb (S807/811): Cat #8516 pRb (S780): Cat #8180. Control antibodies as follows total AKT: Cat #9272 pAKT: Cat #4060.

[3] = tested on: MCF7 cells; experiment: Proliferation assay (Cell Titer-Glo), MCF7; assay type: cell-based, human
Procedure: (§1) Cells were seeded in duplicate or triplicate at 1500 to 5000 cells per well in 96 well plates, Opaque-walled 96-well plates with clear bottom: 96-well, Black/Clear, Flat bottom with lid, FALCON, 353219 in reduced serum conditions at either 3% v/v FBS or 1% v/v FBS. The day after plating recombinant HRGβ1 was added to yield a final concentration of 10 nM. Control wells received media without HRGβ1. Plates were then incubated for the indicated time period of 4 to 6 days at 37° C. in a humid atmosphere with 95% air, 5% CO2.
(§2) The day after plating recombinant HRGβ1 was added to yield a final concentration of 10 nM. Control wells received media without HRGβ1. […] Where indicated CDK inhibitors were added at 10 μM and dilutions were performed to generate a dose-response curve with 2 controls wells per row. Plates were then incubated for the indicated time period of 4 to 6 days at 37° C. in a humid atmosphere with 95% air, 5% CO2. Growth inhibition was calculated as a function of the relative inhibition or proliferation of cells treated with either growth factor or antagonists to cells treated with diluent only, over the same time period.
(§3) The day after plating recombinant HRGβ1 was added to yield a final concentration of 10 nM. Control wells received media without HRGβ1. […] Where indicated CDK inhibitors were added at 10 μM and dilutions were performed to generate a dose-response curve with 2 controls wells per row. Plates were then incubated for the indicated time period of 4 to 6 days at 37° C. in a humid atmosphere with 95% air, 5% CO2.
(§4) To measure proliferation, Cell Titer-Glo (CTG) assays were performed as per manufacturer's instructions. Specifically, reagent-1 and reagent-2 were equilibrated to room temperature at which point reagent-1 was added to reagent-2 and mixed by vortex. Test plates containing cells were equilibrated to room temperature for 30 minutes at which point an equal volume of CTG reagent was added to each well of the test plate, typically 100 μl to give a final volume of 200 μl per well. Each plate was then sealed with a foil plate sealer and mixed on an orbital shaker for 10 minutes to lyse cells and release cellular ATP. Following mixing plates were incubated at room temperature for 15 minutes to stabilize the luminescent signal. Data was collected by measuring relative luminescence on a Synergy H1 plate reader using the luminescence program. Growth was calculated and expressed as a relative value to the unstimulated control wells on each individual plate. Growth inhibition was calculated as a function of the relative inhibition of cells treated with antagonists to the growth of cells treated with diluent only, over the same time period. Data was then plotted using GraphPad Prism software.

[4] = tested on: CDK2; experiment: CDK2 activation (phospho-Thr160) by Western blotting in MCF7 cells; assay type: cell-based, human; conditions: for CDK2 activation: MCF7, agent alone, 20-24 hours, fulvestrant, palbociclib, abemaciclib 100 nM
Procedure: Cellular lysates were prepared by lysis in MPER lysis buffer with the addition of protease and phosphatase inhibitors for 30 minutes on ice. Cellular debris was removed by centrifugation at 10,000 rpm. Proteins were analyzed by Western blotting according to standard protocols.

[5] = cited from earlier work
[6] = tested on: metastatic ER-positive HER2-negative breast cancer; conditions: letrozole plus palbociclib, combination arm; cited from earlier work
[7] = tested on: HCC1428 cells; experiment: Proliferation assay (Cell Titer-Glo), HCC1428; assay type: cell-based, human; conditions: HCC1428, stimulated with HRG for 6 days
Procedure: as §1
To measure proliferation, Cell Titer-Glo (CTG) assays were performed as per manufacturer's instructions. Specifically, reagent-1 and reagent-2 were equilibrated to room temperature at which point reagent-1 was added to reagent-2 and mixed by vortex. […] Data was collected by measuring relative luminescence on a Synergy H1 plate reader using the luminescence program. Growth was calculated and expressed as a relative value to the unstimulated control wells on each individual plate. Growth inhibition was calculated as a function of the relative inhibition of cells treated with antagonists to the growth of cells treated with diluent only, over the same time period. […]

[8] = tested on: T47D cells; experiment: Proliferation assay (Cell Titer-Glo), T47D; assay type: cell-based, human
Procedure: as §1, §2, §3, §4

[9] = tested on: MCF7 cells; experiment: Proliferation assay (Cell Titer-Glo), MCF7; assay type: cell-based, human; conditions: MCF7, ligands 1 nM, fulvestrant 50 nM, palbociclib 40 nM, 6 days
[10] = tested on: ZR75-1 cells; experiment: Proliferation assay (Cell Titer-Glo), ZR75-1; assay type: cell-based, human
Procedure: as §2
The day after plating recombinant HRGβ1 was added to yield a final concentration of 10 nM. Control wells received media without HRGβ1. […]
To measure proliferation, Cell Titer-Glo (CTG) assays were performed as per manufacturer's instructions. […] Data was collected by measuring relative luminescence on a Synergy H1 plate reader using the luminescence program. Growth was calculated and expressed as a relative value to the unstimulated control wells on each individual plate. Growth inhibition was calculated as a function of the relative inhibition of cells treated with antagonists to the growth of cells treated with diluent only, over the same time period. […]

[11] = tested on: MCF-7Ca xenograft tumors; experiment: MCF-7Ca xenograft model of post-menopausal ER+ breast cancer; assay type: in vivo, mice
Procedure: A model of post-menopausal ER+ breast cancer was used to determine the effect of blocking HRG-mediated ERB3 signaling and/or estrogen-mediated ER activation on tumor growth (FIG. 16). […] Changes in mean tumor volume (±SEM) were determined weekly by caliper measurement.

[12] = tested on: MCF7 cells; experiment: MCF7 orthotopic xenograft model of ER+ HER2- breast cancer; assay type: in vivo; conditions: SHO mice
Procedure: Female SHO mice (Charles River Laboratories) aged 8-10 weeks were implanted with 17-beta-estradiol pellets (0.72 mg/pellet) and 2 days later, injected with 100 μl of 5×10^6 MCF7 cells suspended in 50% DPBS/50% matrigel into the abdominal mammary fat pad. Tumor growth was monitored twice a week and tumor volumes were calculated following external caliper measurement according to the formula (tumor size=π/6×[length×width^2]). Once the average measured tumor volume had reached approximately 200 mm^3, mice were randomized into groups and treatment was administered. Overall, the average starting tumor volume per group was equivalent across all groups. Fulvestrant was dosed at 500 μg per mouse once per week via subcutaneous delivery. Palbociclib was dosed at 25 mg/kg, orally every day for 5 days, Monday through Friday.

Molecule: CC(=O)c1c(C)c2cnc(Nc3ccc(N4CCNCC4)cn3)nc2n(C2CCCC2)c1=O [palbociclib, 6-acetyl-8-cyclopentyl-5-methyl-2-{[5-(piperazin-1-yl)pyridin-2-yl]amino}pyrido[2,3-d]pyrimidin-7(8H)-one]
- S-phase cell cycle progression ([1]; MCF7, single agents in the absence of HRG): efficacious at inhibiting S-phase cell cycle progression
- RB phosphorylation / activation [2]: decrease RB activation
- proliferation ([3]; MCF7, single agent CDK4/6 inhibitor over a dose range, 6 days): inhibited proliferation in a dose dependent manner
- CDK2 activation ([4]; HRG 10 nM): inhibited CDK2 activation
- solubility ([5]; above pH 4): reduces significantly
- solubility ([5]; at or below pH 4): high-solubility compound
- overall survival [6]: did not reach statistical significance
- progression free survival (PFS) [6]: statistically significant increase

B1: HRG: heregulin, naturally occurring ligand of ErbB3; recombinant HRGβ1 from R&D Systems used in the assays (protein)
chain: SHLVKCAEKEKTFCVNGGECFMVKDLSNPSRYLCKCPNEFTGDRCQNYVMASFYKHLGIEFMEAE
- effect of HRG on cell cycle inhibitory activity of the palbociclib-fulvestrant combination ([1]; MCF7): blocked the cell cycle inhibitory activity
- proportion of cells in the S-phase ([1]; MCF7, 24 hours, resting cells 15.8%): 55%
- effect of HRG on cell cycle inhibitory activity of fulvestrant or palbociclib ([1]; MCF7, single agents): significantly inhibited
- RB phosphorylation / activation [2]: promoted the phosphorylation and activation of RB
- effect of HRG on the CDK4/6 inhibitor-fulvestrant combination ([3]; MCF7): blocked
- effect of HRG on CDK4/6 inhibitor activity ([3]; MCF7, HRG 10 nM, CDK4/6 inhibitor dose range): significantly repressed CDK4/6 inhibitor activity
- proliferation ([3]; MCF7, estradiol and HRG in combination): increased proliferation
- proliferation ([3]; MCF7, stimulated with HRG for 6 days): induced proliferation; also recorded: significantly increased the proliferation
- proliferation [7]: induced proliferation
- proliferation ([8]; estradiol and HRG in combination): increased proliferation
- inhibiting fulvestrant, palbociclib and combination activity, ligand comparison ([8]; ligands 1 nM, fulvestrant 50 nM, palbociclib 40 nM, 6 days): most effective ligand
- proliferation ([8]; stimulated with HRG for 6 days): induced proliferation; also recorded: significantly increased the proliferation
- inhibiting fulvestrant, palbociclib and combination activity, ligand comparison [9]: most effective ligand
- effect of HRG on inhibition of CDK2 activation by fulvestrant, palbociclib or abemaciclib ([4]; MCF7, HRG 10 nM): blocked this inhibitory activity
- CDK2 activation ([4]; HRG 10 nM): can activate CDK2
- effect of HRG on CDK4/6 inhibitor activity ([10]; ZR75-1): inhibited the activity of CDK4/6 inhibitors

B2: seribantumab: human monoclonal anti-ErbB3 IgG2; heavy and light chains SEQ ID NO: 7 and 8 (antibody)
heavy: EVQLLESGGGLVQPGGSLRLSCAASGFTFSHYVMAWVRQAPGKGLEWVSSISSSGGWTLYADSVKGRFTISRDNSKNTLYLQMNSLRAEDTAVYYCTRGLKMATIFDYWGQGTLVTVSSASTKGPSVFPLAPCSRSTSESTAALGCLVKDYFPEPVTVSWNSGALTSGVHTFPAVLQSSGLYSLSSVVTVPSSNFGTQTYTCNVDHKPSNTKVDKTVERKCCVECPPCPAPPVAGPSVFLFPPKPKDTLMISRTPEVTCVVVDVSHEDPEVQFNWYVDGVEVHNAKTKPREEQFNSTFRVVSVLTVVHQDWLNGKEYKCKVSNKGLPAPIEKTISKTKGQPREPQVYTLPPSREEMTKNQVSLTCLVKGFYPSDIAVEWESNGQPENNYKTTPPMLDSDGSFFLYSKLTVDKSRWQQGNVFSCSVMHEALHNHYTQKSLSLSPGK
light: QSALTQPASVSGSPGQSITISCTGTSSDVGSYNVVSWYQQHPGKAPKLIIYEVSQRPSGVSNRFSGSKSGNTASLTISGLQTEDEADYYCCSYAGSSIFVIFGGGTKVTVLGQPKAAPSVTLFPPSSEELQANKATLVCLVSDFYPGAVTVAWKADGSPVKVGVETTKPSKQSNNKYAASSYLSLTPEQWKSHRSYSCRVTHEGSTVEKTVAPAECS
- effect of seribantumab on cell cycle inhibitory activity of fulvestrant or palbociclib ([1]; MCF7, in the presence of HRG): restores this activity
- effect of seribantumab on cell cycle inhibitory activity of the palbociclib-fulvestrant combination ([1]; MCF7, in the presence of HRG): restored this activity
- effect of seribantumab on activity of fulvestrant, palbociclib and abemaciclib on RB ([2]; MCF7, seribantumab 1 uM, with HRG, alone or in combination): restored the activity
- effect of adding seribantumab on CDK4/6 inhibitor activity ([3]; MCF7, CDK4/6 inhibitor plus HRG 10 nM): restored CDK inhibitory activity
- effect of adding seribantumab on the CDK4/6 inhibitor-fulvestrant combination ([3]; MCF7, with HRG): restored sensitivity
- effect of adding seribantumab on proliferation ([3]; MCF7 treated with fulvestrant, estradiol and HRG): restoration of the activity of fulvestrant
- effect on HRG-induced CDK2 activation ([4]; MCF7, in the presence of fulvestrant or CDK4/6 inhibitors palbociclib and abemaciclib): blocked HRG mediated activation of CDK2
- effect on HRG-induced CDK2 activation ([4]; MCF7, seribantumab 1 uM, HRG 10 nM): can block the activating effect of HRG on CDK2 activation
- resistance to letrozole ([11]; co-treated with letrozole and seribantumab): substantially delayed
- tumor growth ([11]; co-treated with letrozole and seribantumab (750 μg/mouse IP)): tumor growth was inhibited
- tumor growth of letrozole-resistant tumors ([11]; re-randomized at week 14, letrozole and seribantumab compared to letrozole alone): significantly decreased tumor growth
- effect of adding seribantumab on CDK4/6 inhibitor activity ([10]; ZR75-1, CDK4/6 inhibitor plus HRG): restored sensitivity
- growth inhibition, addition of seribantumab to the combination of palbociclib and fulvestrant [12]: increases the growth inhibition
- antitumor efficacy, addition of seribantumab to fulvestrant ([12]; seribantumab 600 μg twice per week IP, fulvestrant 500 μg once per week SC): increased the antitumor efficacy
- antitumor efficacy, addition of seribantumab to palbociclib ([12]; seribantumab 600 μg twice per week IP, palbociclib 25 mg/kg orally): increased the antitumor efficacy
